{"source": "patent US20220340685A1", "about": "“COMBINATION THERAPY WITH ENTPD2 AND CD73 ANTIBODIES” (Novartis AG, priority 2019, published 2022)", "molecules": {"B1": {"name": "mAb17: hybridoma-derived anti-human ENTPD2 lead inhibitory mAb (chimeric); VH/VL DNA SEQ ID NO: 234/238 (antibody, V domains shown)", "VH": "EVQLQQFGAELVKPGASVKISCKASGYTFTDYNMDWVKQSHGKSLEWIGDINPKYDISTYNQQFKGKATLTVDKSSSTAYMELRSLTSEDTAVYYCARRGFFLYYGINYYYFDVWGAGTTVTVSS", "VL": "QIVLTQSPAIMSASLGEEITLTCSASSSVSYIHWYQQKSGTSPTLLIYSTSNLASGVPSRFSGSGSGTFYSLTISSVEAEDAADYYCHQWSSYPWTFGGGTKLEIK", "modifications": "constant regions not cited"}, "B2": {"name": "mAb16: hybridoma-derived anti-human ENTPD2 lead inhibitory mAb (chimeric); VH/VL DNA SEQ ID NO: 226/230 (antibody, V domains shown)", "VH": "DIQLQESGPGLVKPSQSLSLTCSVTGYSITSGYYWNWIRQFPGNKLEWMGYISYDGDNNYNPSLKNRISITRDTSKNQFFLKLSSVTTEDTATYYCAGGYYRYGLSYYYVMDYWGQGTSVTVSS", "VL": "DTVLTQSPASLAVSLGQRATISCKASQSVDYDGNSYMNWYQQKPGQPPKLLIYAASNLESGIPARFSGSGSGTDFTLNIHPVEEEDAATYYCQQSNEDPPTFGGGTKLEIK", "modifications": "constant regions not cited"}, "B3": {"name": "mAb13: anti-mouse ENTPD2 monoclonal antibody; HC SEQ ID NO: 193, LC SEQ ID NO: 204 (antibody)", "heavy": "QVQLVQSGAELKQPGQSVKISCKASGYTFTHYGMNWVKQAPGQGLKWMGWINTDTGNPTYADDFKGRFVFSLDTSVSTAYLQISNLKNEDTATYYCVRYGTLYSGYGFFFDSWGQGTLVTVSSAKTTAPSVYPLAPVCGDTTGSSVTLGCLVKGYFPEPVTLTWNSGSLSSGVHTFPAVLQSDLYTLSSSVTVTSSTWPSQSITCNVAHPASSTKVDKKIEPRGPTIKPCPPCKCPAPNLLGGPSVFIFPPKIKDVLMISLSPIVTCVVVDVSEDDPDVQISWFVNNVEVHTAQTQTHREDYNSTLRVVSALPIQHQDWMSGKEFKCKVNNKDLPAPIERTISKPKGSVRAPQVYVLPPPEEEMTKKQVTLTCMVTDFMPEDIYVEWTNNGKTELNYKNTEPVLDSDGSYFMYSKLRVEKKNWVERNSYSCSVVHEGLHNHHTTKSFSRTPGK", "light": "DIMMTQSPSSLSVSAGEKATITCKSSQSLFNSNTNKNYLNWYLQKPGQSPKLLFYYASTRHTGVPDRFIGSGSGTDFTLTITSVQDEDLADYYCQQWYSYPWTFGPGTKLEIKRADAAPTVSIFPPSSEQLTSGGASVVCFLNNFYPKDINVKWKIDGSERQNGVLNSWTDQDSKDSTYSMSSTLTLTKDEYERHNSYTCEATHKTSTSPIVKSFNRNEC"}, "B4": {"name": "mAb15: anti-mouse ENTPD2 antibody, T30 variant of mAb13; HC SEQ ID NO: 218, LC SEQ ID NO: 204 (antibody)", "heavy": "B3 heavy with T30H", "light": "B3 light"}}, "key": {"ENTPD2": {"biological_target": "T1, ENTPD2 (Homo sapiens, UniProt Q9Y5L3)", "T1 sequence (Q9Y5L3 1-495)": "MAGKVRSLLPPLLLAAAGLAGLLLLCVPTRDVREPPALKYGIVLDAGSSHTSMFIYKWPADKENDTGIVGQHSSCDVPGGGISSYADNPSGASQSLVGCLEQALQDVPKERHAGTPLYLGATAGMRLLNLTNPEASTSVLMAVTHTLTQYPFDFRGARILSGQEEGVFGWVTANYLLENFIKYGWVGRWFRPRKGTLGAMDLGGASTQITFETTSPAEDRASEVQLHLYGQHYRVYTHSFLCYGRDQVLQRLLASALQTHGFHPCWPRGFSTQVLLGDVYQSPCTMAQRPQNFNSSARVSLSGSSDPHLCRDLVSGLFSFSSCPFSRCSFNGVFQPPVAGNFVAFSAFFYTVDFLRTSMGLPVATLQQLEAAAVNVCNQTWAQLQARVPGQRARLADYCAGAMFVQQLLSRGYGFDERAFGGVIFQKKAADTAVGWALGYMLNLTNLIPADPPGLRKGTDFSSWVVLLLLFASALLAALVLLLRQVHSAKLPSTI", "experiment": "Cell-based screen of hybridoma-derived mAbs for inhibition of ATP hydrolysis by ENTPD2", "description": "Hybridoma-derived mAbs were screened in a cell-based assay for inhibition of ATP hydrolysis by ENTPD2."}, "[1]": {"biological_target": "T2, recombinant human ENTPD2 (residues 29-462) (Homo sapiens, UniProt Q9Y5L3)", "T2 construct": "residues 29-462 of human or cyno ENTPD2; GP67 signal peptide (N); made in house; host or cells: High Five (Trichoplusia ni) insect cells, baculovirus", "T2 sequence (Q9Y5L3 29-462)": "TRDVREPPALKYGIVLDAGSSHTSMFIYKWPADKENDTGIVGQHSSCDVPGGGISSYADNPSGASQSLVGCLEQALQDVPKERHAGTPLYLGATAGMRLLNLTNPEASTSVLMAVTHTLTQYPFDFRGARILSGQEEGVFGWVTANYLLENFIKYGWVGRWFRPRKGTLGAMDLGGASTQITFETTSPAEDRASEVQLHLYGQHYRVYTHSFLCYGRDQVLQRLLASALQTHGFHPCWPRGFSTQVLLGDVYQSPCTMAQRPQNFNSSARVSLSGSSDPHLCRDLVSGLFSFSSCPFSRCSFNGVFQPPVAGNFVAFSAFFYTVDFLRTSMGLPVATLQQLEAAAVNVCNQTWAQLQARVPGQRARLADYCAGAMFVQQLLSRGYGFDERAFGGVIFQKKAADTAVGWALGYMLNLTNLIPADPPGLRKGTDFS", "experiment": "Biochemical human ENTPD2 functional assay (Transcreener ADP2 TR-FRET)", "description": "Biochemical and cell-based functional assays were developed in-house to understand functional impact of anti-ENTPD2 Abs against purified extracellular domain of ENTPD2 (residues 29-462), as well as against the fully intact protein in the context of the native cell-based conformation. ENTPD2 hydrolyzes ATP to ADP, which can subsequently be detected using the HTRF Transcreener ADP2 TR-FRET Red Assay (BellBrook Labs, Madison, Wis.) where ENTPD2-produced ADP would compete with the ADP Tracer for binding to the anti-ADP-Tb antibody. The resulting signal is inversely proportional to the concentration of ADP in the sample. […]\nHTRF signal (Emission at 620 nm and 665 nm) was assessed in both assays using the Envision plate reader in HTRF mode (Perkin Elmer, Waltham, Mass.). HTRF ratio was determined using the following formula: HTRF ratio=R=Emission at 665 nm/Emission at 620 nm×10,000. Subsequently % Residual Activity and % Inhibition were determined as follows:\nWhere R0% is the HTRF ratio of the negative control (0% enzyme activity), and R100% is the HTRF ratio of the positive control (100% enzyme activity). Data were analyzed in Microsoft Excel and graphed using GraphPad's Prism 7.0 software and IC50 values were obtained using non-linear regression, log (agonist) vs. response-variable slope (four parameters) analysis."}, "B16F10 tumor model": {"tested_on": "B16F10 tumor model", "experiment": "Syngeneic B16F10 tumor model, tumor growth", "type": "in vivo, C57BL/6 mice", "details": "mAb13 15 mg/kg, anti-PD-1 Ab 10 mg/kg i.p., days 1, 5, 8", "description": "B16F10 model was established in female C57BL/6 mice by subcutaneous injection of 0.5×10^6 cells into the right flank of each mouse. On day 7 once tumors reached approximately 30 mm^3, mice were randomized according to tumor volume into treatment groups (n=10 per group). Mice received treatment of either anti-mouse ENTPD2 mAb13 at a final dose 15 mg/kg, anti-PD-1 Ab (clone RMP1-14 Bio X Cell, West Lebanon, N.H.) i.p. at a final dose of 10 mg/kg or the combination of both treatments on days 1, 5, and 8. All doses were adjusted to individual mouse body weights."}, "4T1 clone 45 model": {"tested_on": "4T1 clone 45 model", "experiment": "4T1 clone 45 model, plasma cytokines and Serum Amyloid P 24 hr post treatment", "type": "in vivo, BALB/c mice", "details": "24 hours after the first treatments", "description": "In order to investigate the immediate impact of ENTPD2 blockade from an immune pathway engagement/biomarker perspective plasma was collected from BALB/c mice 24 hr after treatment with anti mENTPD2 mAb15 alone or in combination with anti-CD73 mAb 350.\n(§1) Mouse ENTPD2-engineered 4T1 clone 45 model was established in female BALB/c mice by subcutaneous injection of 0.5×10^6 cells into the right flank of each mouse. Once tumors reached approximately 100-150 mm^3, mice were randomized according to tumor volume into treatment groups (n=8 per group). Mice received an i.p. treatment of either Anti-mENTPD2 mAb 15 or a non-specific mouse IgG2a isotype control at a final dose of 10 mg/kg on day 0, 2, 5 and 9. Anti-CD73 mAb 350 or a non-specific human IgG4 was dosed i.p. at a final dose of 20 mg/kg on day 0 and 5 (Table 28).\nFor the measurement of cytokines and Serum Amyloid P, a marker of inflammation in a mouse, plasma was collected pre-dosing the mice on Day 0 and 24 hours after the first treatments on Day 1.\nBriefly, plasma was isolated via collection of blood into Microvette MV-H-300 Capillary Plasma Lithium Heparin Blood Collection tube (Sai Infusion technologies, Lake Villa, Ill.), that were spun down at 1000-2000 ×g for 10 min. Plasma samples were stored at −80C until use. 10 μL of serum diluted 1:5 was used for cytokine analysis using the MSD Mouse Pro-Inflammatory Panel 1 (MSD, Rockville, Md.) and 5 μL of serum diluted 1:10 MSD Mouse Cytokine Panel 1 (MSD, Rockville, Md.) according to manufacturer's recommendations. To determine the levels of SAP 10 μL of undiluted serum was used for analysis in the SAP Quantikine® ELISA (RnD systems) according to manufacturer's recommendations."}, "4T1 clone 45 tumors": {"tested_on": "4T1 clone 45 tumors", "experiment": "4T1 clone 45 model, flow cytometry of tumor cells and immune infiltrate on day 12", "type": "in vivo, BALB/c mice", "description": "In order to understand the impact of anti-ENTPD2 mAb15 alone or in combination with anti-CD73 mAb 350 treatments on the tumor microenvironment, mice were euthanized on day 12 and tumors were dissociated in HyClone RPMI1640 media (GE Healthcare, Pittsburg, Pa.) using gentleMacs C-tubes (Miltenyi Biotec, Auburn, Calif.) on the gentleMacs Octo Dissociator (Miltenyi Biotec, Auburn, Calif.). Approximately 2×10^6 dissociated tumor cells were blocked with rat anti-mouse CD16/CD32 Ab (Biolegend, San Diego, Calif.) to reduce non-specific FcyRIII/II binding and subsequently stained with the cocktails of antibodies from either the myeloid or T cell panel:\nWe also stained cells with an anti-ENTPD2 antibody whose binding to ENTP2 is not blocked by anti-ENTPD2 mAb15. All incubations and washed were performed in FACS Buffer composed of 1× Hyclone Phosphate Buffered Saline (GE Healthcare, Pittsburg, Pa.), 1% HyClone Fetal Bovine Serum (GE Healthcare, Pittsburg, Pa.), 2 mM EDTA (ThermoFisher, Waltham Mass.)."}, "[2]": {"tested_on": "mouse ENTPD2-engineered 4T1 clone 45", "experiment": "Mouse ENTPD2 engineered 4T1 clone 45 syngeneic model, efficacy", "type": "in vivo, BALB/c mice", "details": "Day 12 post treatment; mAb15 10 mg/kg i.p.; mAb 350 20 mg/kg i.p.", "description": "This model was derived from the 4T1 murine breast cancer model, where mouse ENTPD2 was overexpressed using a retroviral transduction approach. […] Stable mouse ENTPD2 expression (approximately 479,000 receptors) in the model was confirmed in vitro by flow cytometry with the mouse ENTPD2 selective anti mouse ENTPD2 mAb15 (FIG. 27).\nas §1, with “50-80” for “100-150”, “(n=10” for “(n=8”, “mAb15” for “mAb 15”, “5.” for “5 (Table 28).”"}}, "note": "Where a chain is given by its changes, count along the chain named."}
{"molecule": "B1", "values": [{"measurement": "inhibition of ATP hydrolysis by ENTPD2 (screen outcome)", "setting": "ENTPD2", "result": "lead inhibitory mAbs"}, {"measurement": "inhibition of the catalytic activity of recombinant human ENTPD2", "setting": "[1]", "result": "potently inhibit"}]}
{"molecule": "B2", "values": [{"measurement": "inhibition of ATP hydrolysis by ENTPD2 (screen outcome)", "setting": "ENTPD2", "result": "lead inhibitory mAbs"}]}
{"molecule": "B3", "values": [{"measurement": "anti-tumor efficacy (tumor growth relative to No Treatment)", "setting": "B16F10 tumor model", "result": "No significant anti-tumor efficacy"}]}
{"molecule": "B4", "values": [{"measurement": "SAP (Serum Amyloid P)", "setting": "4T1 clone 45 model", "result": "significant increase"}, {"measurement": "plasma IP10", "setting": "4T1 clone 45 model", "result": "significant increase"}, {"measurement": "plasma MCP1", "setting": "4T1 clone 45 model", "result": "significant increase"}, {"measurement": "plasma MIP-2", "setting": "4T1 clone 45 model", "result": "significant increase"}, {"measurement": "CD4+ central memory cells (CD45+MHCII-CD49−CD4+CD62L+CD44+)", "setting": "4T1 clone 45 tumors; day 12", "result": "significant increase"}, {"measurement": "activated CD8+ T cells (CD45+MHCII-CD49−CD8+CD25+)", "setting": "4T1 clone 45 tumors; day 12", "result": "significant increase"}, {"measurement": "cell surface ENTPD2 staining on tumor cells", "setting": "4T1 clone 45 tumors; day 12, vs hIgG4 and mIgG2 isotype antibodies", "result": "decrease in cell surface ENTPD2 staining"}, {"measurement": "AT/AC value", "setting": "[2]", "result": 76.61}]}
